The target of experiment [1] is T1, recombinant human tau protein, isoform 2N4R (Tau-441) (human, UniProt P10636-8 1-441).
T1 construct: Bought
Kind of experiment: SPR, sdAb stored at 4 C, 34 days after IMAC purification.

The target of experiment [2] is hyperphosphorylated tau (tau-p; University of Victoria). Kind of experiment: SPR (Biacore T200), sdAb over immobilized antigen, steady state fit. As for the experimental part: (§1) Surface Plasmon Resonance (SPR): All binding assays for Tau15 and Tau81 were carried out at 25° C. on a Biacore™ T200 instrument (GE Healthcare). […] The running buffer for all SPR experiments was HBS-EP+ (10 mM HEPES, 150 mM NaCl, 3 mM EDTA, pH 7.4, 0.05% surfactant P20; GE Healthcare). The sdAb were injected at 20 μL/min for 3 min with a dissociation time of 7 min for the test run, and at 20 μL/min for 2 min with a dissociation time of 6 min for the steady state analysis. Data was analyzed using the Biacore T200 evaluations software Version 2.0.
(§2) The KD value for the interaction between Tau15 and Tau81 sdAb and immobilized tau were derived by fitting the data to a steady state model and are reported in Table 1. […] Size exclusion chromatograms (FIG. 4) confirmed that Tau15 and Tau81 were monomeric.
(In general: SPR reads the build-up and loss of mass on a sensor chip optically.)

Experiment [3] deals with T1, recombinant human tau protein, isoform …. The experiment is described as above. As for the experimental part:
as §1, §2

Experiment [4] shares this target. Kind of experiment: SPR, sdAb stored at 4 C, 42 days after IMAC purification.
Experiment [5] shares this target. Kind of experiment: SPR, sdAb stored at 4 C, 30 days after IMAC purification.
Experiment [6] has the same target. Briefly: SPR, sdAb stored at 4 C, 55 days after IMAC purification.
The target is the same in experiment [7]. Kind of experiment: SPR (Biacore 3000), over immobilized Tau-441, duplicate injection. As for the experimental part: (§3) Surface Plasmon Resonance (SPR): All binding assays for DH-Tau15 and Fc-Tau15 were carried out at 25° C. on a Biacore™ 3000 instrument (GE Healthcare). […] The running buffer for all SPR experiments was HBS-EP+ (10 mM HEPES, 150 mM NaCl, 3 mM EDTA, pH 7.4, 0.05% surfactant P20; GE Healthcare). The antibodies were injected at 20 μL/min for 2 min with a dissociation time of 30 min. Data was analyzed using the Biacore 3000 BIAevaluations software Version 4.1.

The target is the same in experiment [8]. Kind of experiment: SPR (Biacore 3000), over immobilized Tau-441. As for the experimental part:
as §3

The values that follow come from patent US20170296680A1 (NATIONAL RESEARCH COUNCIL OF CANADA, published 2017).

Several values for one entry are separate records, joined by “and”; a condition that tells them apart may be missing. Identical values can stand only once.

T1 sequence (P10636 other isoform, or with tags, fused parts or gaps limits assumed): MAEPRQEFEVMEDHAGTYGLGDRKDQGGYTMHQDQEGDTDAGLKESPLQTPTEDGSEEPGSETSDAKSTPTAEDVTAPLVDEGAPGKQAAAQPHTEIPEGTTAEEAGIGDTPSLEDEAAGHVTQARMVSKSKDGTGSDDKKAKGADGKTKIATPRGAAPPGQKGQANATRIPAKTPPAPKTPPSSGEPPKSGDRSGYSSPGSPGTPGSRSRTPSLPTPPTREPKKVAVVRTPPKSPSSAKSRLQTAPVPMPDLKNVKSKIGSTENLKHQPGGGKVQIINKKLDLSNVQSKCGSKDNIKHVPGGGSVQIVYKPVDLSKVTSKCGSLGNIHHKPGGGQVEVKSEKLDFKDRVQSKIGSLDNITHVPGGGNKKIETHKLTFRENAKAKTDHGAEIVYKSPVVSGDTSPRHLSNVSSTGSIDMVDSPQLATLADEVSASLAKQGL

B1: Tau81 (VHH)
VHH: QVQLVESGGGLVQPGGSLKLSCAASGFTGDHYAMSWVRQAPGKGLEWVSTIYSYSPNTYYVDSVKDRFTISLDNAKNTLYLQMNSLKPEDTAVYYCAADLEVAEYYAYWGQGTQVTVSS
notes: Llama single-domain antibody with VH hallmark residues in FR2; mainly monomeric by SEC; also called 7Tau81; sdAb Tau81; not shown: C-terminal cmyc and His6 tags (pSJF2H vector); OmpA leader removed on secretion
Turning to B1, the Kd in experiment [1] came to 175 nM; in experiment [2], 745 nM; in experiment [3], 820 nM; in experiment [4] it was 660 nM; in experiment [5] it was 105 nM; in experiment [6], 507 nM.

B2: Tau15 (VHH)
VHH: QVKLEESGGGLVQPGGSLRLSCAASGFTFSNFAMTWVRQSPGKGLEWVSAIDNDGGRTSYSDSVKGRFTISRDNAKNTLYLQMNSLKPEDTAMYYCAAMNLATRKWELWGQGTQVTVSS
notes: Llama single-domain antibody with VH (not VHH) hallmark residues in FR2; monomeric by SEC; expressed in E. coli periplasm; also called 3Tau15; sdAb Tau15; not shown: C-terminal cmyc and His6 tags (pSJF2H vector); OmpA leader removed on secretion
Regarding B2, the Kd in experiment [1] was determined as 820 nM; in experiment [2] it was 622 nM; in experiment [3], 699 nM; in experiment [4], 534 nM; in experiment [5], 605 nM; in experiment [6] it was 590 nM. Also, the koff in experiment [7] was 0.0632 s⁻¹ and 0.0667 s⁻¹.

B3: dimeric human hinge Tau15 (DH-Tau15) (VHH)
VHH: QVKLEESGGGLVQPGGSLRLSCAASGFTFSNFAMTWVRQSPGKGLEWVSAIDNDGGRTSYSDSVKGRFTISRDNAKNTLYLQMNSLKPEDTAMYYCAAMNLATRKWELWGQGTQVTVSS
notes: dimer through the hinge; also called dimeric hinge Tau15; hinge dimer
For the molecule B3, the koff in experiment [7] is 4.27e-05 s⁻¹ and 3.45e-05 s⁻¹. The “fold slower off rate than monomeric Tau15” value in experiment [8] was ~1000 fold.

What is called Kd is the equilibrium constant for the complex coming apart. A word on the koff: it is the rate constant with which the complex falls apart.
